Paper PMC8899190, “Creating a Selective Nanobody Against 3-Nitrotyrosine Containing Proteins” (Frontiers in Chemistry, 2022)
Where a chain is given by its changes, count along the chain named. Names may count otherwise.

B1: Nb-G5 (C115S) (VHH)
VHH: QVQLQESGGGLVQPGGSLRLSCAASKNIANFDSMAWYRRSPGKERDLVARLYSDGGTNYEDSVKGRFNISTDIEKNTVYLQMNNLKLEDTARYYCRADLGLFDTSEFPGQGTQVTVSS
notes: also called C115S mutant of Nb-G5
B2: Nb-G5 (VHH)
VHH: B1 VHH with S105C
notes: alpaca nanobody from phage display; The methods describe two cleavable tags for nanobodies (His6-SUMO cut by ULP1, His-bdNEDD8 cut by bdNEDP1); also called anti-nitroTyr Nb; source: E. coli, purified (TALON, tag cleaved, Superdex 200 SEC)

Key:
Conditions in all cases: both partners purified
[1] = target: T1, Avi-tagged, biotinylated h14-3-3ß_(nY130) (Homo sapiens, UniProt P31946, 3-nitrotyrosine at 130; biotin on the N-terminal Avi tag); test: BLI; Nb-G5 (C115S) against nitrated and WT h14-3-3β; conditions of this experiment not told
T1 construct: human 14-3-3 beta with 3-nitrotyrosine in place of Y130, from a pBAD-AVI-14-3-3-His plasmid; also called 14-3-3β_(nY130); 14-3-3_(nY130); source: E. coli BL21ai with genetic code expansion, co-expressed with GST-BirA, purified (TALON); not shown: Avi tag, N-terminal, kept
T1 sequence (P31946 whole entry): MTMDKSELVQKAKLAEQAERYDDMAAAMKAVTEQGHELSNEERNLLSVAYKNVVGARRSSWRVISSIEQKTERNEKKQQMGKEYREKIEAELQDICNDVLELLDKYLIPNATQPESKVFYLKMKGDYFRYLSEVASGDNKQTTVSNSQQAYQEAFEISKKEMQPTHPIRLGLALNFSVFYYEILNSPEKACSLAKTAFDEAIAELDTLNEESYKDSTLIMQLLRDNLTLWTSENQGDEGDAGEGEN

calmodulin WT = calmodulin WT (species ; human CALM1 entry, …, UniProt P0DP23); test: BLI; CaM forms on sensors (kind of sensor not told), Nb-G5 in solution (300 nM in Figure 3C); 0.05% Tween; local fits
[2] = target: T2, h14-3-3ß_(nY130), His-tagged (Homo sapiens, UniProt P31946, 3-nitrotyrosine at 130); test: far-Western, overlay or dot blot; 14-3-3 targets (0.5-5 µg) dotted on PVDF, probed with Nb-G5 diluted 1:3,000 in TBS at room temperature, detected with anti-llama HRP
T2 construct: human 14-3-3 beta with 3-nitrotyrosine in place of Y130 (amber suppression); Held on nickel-coated ELISA plates; also called 14-3-3β nitroY130; source: E. coli BL21ai with genetic code expansion, purified (TALON)
T2 sequence (P31946 whole entry): as above

[3] = target: T3, h14-3-3ß_(nY213), His-tagged (Homo sapiens, UniProt P31946, 3-nitrotyrosine at 213); test: as above
T3 construct: human 14-3-3 beta with 3-nitrotyrosine in place of Y213 (amber suppression); also called nitrated human 14-3-3ß isoform nY213; source: E. coli BL21ai with genetic code expansion, purified (TALON)
T3 sequence (P31946 whole entry, canonical isoform): as the sequence (P31946 whole entry) above

Row | Binder | fold decrease of binding against Nb-G5 [1] [fold] | binding result (calmodulin WT) | binding result [2] | binding result [3]
1 | B1 | 6 | – | – | –
2 | B2 | – | no binding (tested: 300 nM) | binds | binds
